Measured values reported in US20100055108A1.

How the values were obtained:
[1] = target: human IL-17RA (human) (UniProt Q96F46); assay: cell-based or functional assay
[2] = target: human IL-17RC (human) (UniProt Q8NAC3); assay: cell-based or functional assay
Sequence of UniProt Q8NAC3 (Q8NAC3 21-791): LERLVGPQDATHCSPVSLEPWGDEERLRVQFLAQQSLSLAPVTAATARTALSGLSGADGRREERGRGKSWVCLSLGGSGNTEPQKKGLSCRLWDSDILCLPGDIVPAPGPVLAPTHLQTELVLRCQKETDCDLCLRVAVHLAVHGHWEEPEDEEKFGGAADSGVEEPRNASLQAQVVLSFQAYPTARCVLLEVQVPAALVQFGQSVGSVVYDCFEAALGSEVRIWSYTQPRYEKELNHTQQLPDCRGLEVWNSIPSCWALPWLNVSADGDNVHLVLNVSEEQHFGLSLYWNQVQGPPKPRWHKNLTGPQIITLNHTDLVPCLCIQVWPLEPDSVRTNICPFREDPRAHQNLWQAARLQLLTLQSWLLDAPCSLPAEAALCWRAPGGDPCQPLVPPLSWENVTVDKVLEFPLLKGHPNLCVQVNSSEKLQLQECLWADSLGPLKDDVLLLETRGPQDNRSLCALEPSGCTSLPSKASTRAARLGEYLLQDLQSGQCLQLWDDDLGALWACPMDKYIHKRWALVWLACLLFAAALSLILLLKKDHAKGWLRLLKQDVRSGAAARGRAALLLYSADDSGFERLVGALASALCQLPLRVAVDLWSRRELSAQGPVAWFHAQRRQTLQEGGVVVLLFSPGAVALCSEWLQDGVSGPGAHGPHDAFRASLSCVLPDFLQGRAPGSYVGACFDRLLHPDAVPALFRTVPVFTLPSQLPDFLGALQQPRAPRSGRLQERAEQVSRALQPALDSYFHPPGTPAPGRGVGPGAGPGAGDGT

inhibition of IL-17A-induced activation of c-Jun (c-Jun mRNA, quantitative RT-PCR) after IL-17RA iRNA knockdown in AGS cells [1]: 80%
inhibition of IL-17A-induced activation of p65 (DNA-binding activity, TransAM NFkB kit) after IL-17RA iRNA knockdown in AGS cells [1]: 97%
inhibition of activation of c-Jun (c-Jun mRNA, quantitative RT-PCR) after IL-17RC iRNA knockdown in AGS cells [2]: 82%
inhibition of activation of p65 (DNA-binding activity, TransAM NFkB kit) after IL-17RC iRNA knockdown in AGS cells [2]: 89%
Substance: recombinant human IL-17A (from UniProt Q16552 20-155) (ligand)
